Assays:
Assay in all cases: ITC; vinculin D1 injected into αT-catenin or αE-catenin fragment (or αT-catenin head–β-catenin complex) in the cell; 25 °C; 20 mM Hepes pH 8.0, 150 mM NaCl, 1 mM TCEP
Settings in all cases: both partners purified
[1] = target: T1, αE-catenin M1-M2 (aa 273–510) (Mus musculus, UniProt P26231 273-510)
T1 construct: αE-catenin, Mus musculus, M1-M2, aa 273-510; in pGEX-TEV; also called αE-catenin M1-M2 (273–510); source: E. coli BL21-Gold, purified (glutathione-agarose, TEV cleavage, Mono Q or Mono S, S200)
T1 sequence (looked up): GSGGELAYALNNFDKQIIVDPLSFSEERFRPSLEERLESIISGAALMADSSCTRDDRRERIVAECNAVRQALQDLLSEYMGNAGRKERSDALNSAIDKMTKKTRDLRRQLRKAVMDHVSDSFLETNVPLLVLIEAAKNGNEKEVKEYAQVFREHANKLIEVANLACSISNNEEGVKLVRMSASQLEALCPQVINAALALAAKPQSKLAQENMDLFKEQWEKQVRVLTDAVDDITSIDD

[2] = target: T2, αT-catenin M1-M3 (aa 260–626) (Mus musculus, UniProt Q65CL1 260-626)
T2 construct: αT-catenin, Mus musculus, M1-M3, aa 260-626; in pGEX-TEV; also called αT-catenin M-region; αT-catenin M1-M3 (260–626); source: E. coli BL21-Gold, purified (glutathione-agarose, TEV cleavage, Mono Q or Mono S, S200)
T2 sequence (looked up): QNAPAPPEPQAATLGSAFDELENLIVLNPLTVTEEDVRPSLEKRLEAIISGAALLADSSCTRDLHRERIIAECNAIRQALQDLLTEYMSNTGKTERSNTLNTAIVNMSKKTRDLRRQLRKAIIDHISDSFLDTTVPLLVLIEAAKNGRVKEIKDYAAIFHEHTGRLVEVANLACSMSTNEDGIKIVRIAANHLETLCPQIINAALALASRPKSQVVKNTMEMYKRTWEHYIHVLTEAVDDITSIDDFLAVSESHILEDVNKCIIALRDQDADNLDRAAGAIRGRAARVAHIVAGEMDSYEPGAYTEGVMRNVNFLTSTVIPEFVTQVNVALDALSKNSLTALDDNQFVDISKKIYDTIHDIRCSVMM

[3] = target: T3, αE-catenin M1-M3 (aa 273–651) (Mus musculus, UniProt P26231 273-651)
T3 construct: αE-catenin, Mus musculus, M1-M3, aa 273-651; in pGEX-TEV; also called αE-catenin M1-M3 (273–651); source: E. coli BL21-Gold, purified (glutathione-agarose, TEV cleavage, Mono Q or Mono S, S200)
T3 sequence (looked up): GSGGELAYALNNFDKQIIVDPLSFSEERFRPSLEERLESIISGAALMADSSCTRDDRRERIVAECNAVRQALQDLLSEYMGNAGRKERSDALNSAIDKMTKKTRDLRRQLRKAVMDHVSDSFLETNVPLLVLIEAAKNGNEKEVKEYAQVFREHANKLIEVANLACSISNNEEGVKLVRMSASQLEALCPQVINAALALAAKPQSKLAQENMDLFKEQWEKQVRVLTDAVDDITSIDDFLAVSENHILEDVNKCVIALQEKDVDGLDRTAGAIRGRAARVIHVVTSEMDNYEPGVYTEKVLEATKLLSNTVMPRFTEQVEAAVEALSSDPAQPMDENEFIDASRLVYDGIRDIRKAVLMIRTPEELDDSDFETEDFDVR

[4] = target: T4, αT-catenin head region (aa 1–659) (Mus musculus, UniProt Q65CL1 1-659)
T4 construct: αT-catenin, Mus musculus, head region (N- and M-domains), aa 1-659; in pGEX-TEV; also called αT-catenin head (1–659); αT-catenin N1-M3 (aa 1–659); source: E. coli BL21-Gold, purified (glutathione-agarose, TEV cleavage, Mono Q or Mono S, S200)
T4 sequence (looked up): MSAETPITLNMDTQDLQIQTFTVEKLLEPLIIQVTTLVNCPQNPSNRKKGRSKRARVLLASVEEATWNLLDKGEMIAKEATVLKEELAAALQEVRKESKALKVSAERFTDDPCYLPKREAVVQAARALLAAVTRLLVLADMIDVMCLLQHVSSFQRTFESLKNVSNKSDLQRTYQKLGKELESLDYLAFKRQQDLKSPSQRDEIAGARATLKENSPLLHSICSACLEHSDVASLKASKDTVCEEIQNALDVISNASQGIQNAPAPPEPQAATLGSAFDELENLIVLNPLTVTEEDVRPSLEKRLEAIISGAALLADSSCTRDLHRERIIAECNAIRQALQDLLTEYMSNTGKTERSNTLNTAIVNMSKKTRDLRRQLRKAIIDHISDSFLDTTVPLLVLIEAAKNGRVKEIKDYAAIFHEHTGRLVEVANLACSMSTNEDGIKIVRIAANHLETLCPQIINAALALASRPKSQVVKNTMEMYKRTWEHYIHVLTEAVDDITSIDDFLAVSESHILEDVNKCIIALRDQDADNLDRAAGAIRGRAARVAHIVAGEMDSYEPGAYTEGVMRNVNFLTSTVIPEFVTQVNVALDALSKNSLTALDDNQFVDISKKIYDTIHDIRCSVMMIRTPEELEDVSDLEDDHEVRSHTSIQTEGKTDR

B1: vinculin D1 (aa 1–259) (domain or fragment, UniProt P12003 1-259, looked up)
chain: MPVFHTRTIESILEPVAQQISHLVIMHEEGEVDGKAIPDLTAPVSAVQAAVSNLVRVGKETVQTTEDQILKRDMPPAFIKVENACTKLVRAAQMLQADPYSVPARDYLIDGSRGILSGTSDLLLTFDEAEVRKIIRVCKGILEYLTVAEVVETMEDLVTYTKNLGPGMTKMAKMIDERQQELTHQEHRVMLVNSMNTVKELLPVLISAMKIFVTTKNTKSQGIEEALKNRNFTVEKMSAEINEIIRVLQLTSWDEDAWA
notes: vinculin D1 fragment, aa 1-259, the first 2 four-helix bundles; in pGEX-TEV; also called vinculin aa 1 to 259 (D1); vinculin N-terminus; source: E. coli BL21-Gold, purified (glutathione-agarose, TEV cleavage, Mono Q or Mono S, S200)
Q: For B1, which dH [1] is on record?
A: 8.7 ± 0.2 kcal/mol

Q: And the Kd [2]?
A: 0.0605 ± 0.0192 µM

Q: What about the dH [2] of the same binder?
A: -2.2 ± 1 kcal/mol

Q: What about the Kd [3] of the same binder?
A: 10.4 ± 4.59 µM

Q: And the dH [3]?
A: 12.8 ± 5.2 kcal/mol

Q: What about the Kd [4] of the same binder?
A: 4.69 ± 2.74 µM

Q: And the dH [4]?
A: 2.3 ± 1.3 kcal/mol
